# Measured values taken from PMC7195491.
# B1: Dpr10 (Defective proboscis extension response 10), extracellular region [Drosophila melanogaster] / DIP-α (Dpr Interacting Protein alpha), extracellular region [Drosophila melanogaster] (parent)
# chain 1: MLTLWTALFCCLTGLAVCYQRQSVSNNNHNNAEAKPTHAPPSHYPHGHKWNEPYFDLTMPRNITSLVGKSAYLGCRVKHLGNKTVAWIRHRDLHILTVGTYTYTTDQRFQTSYHRDIDEWTLQIKWAQQRDAGVYECQISTQPVRSYSVNLNIVVPTATILGGPDLYVDKGSTINLTCIIKFSPEPPTHIFWYHQDKVLSEETSGGRLKFKTIKSEETKSILLIYDADLLHSGKYSCYPSNTEIASIRVHVLQGERPEAMQTNAAPAAVALACWSCHFGQATQAVRVISTMVAALVLLEACSSLLLQSGGGGGCPGGGSPAGGMPTRVREIREKPLTNSLLDPKIPSTTSAERVNNGSRNAR
# chain 2: MPVSAKRLLRNFQFTSCDRNGKMLIHLLLIVSLLEAIGAFQPEFVESISNVSVAVGRDATFTCHVRHLGGYRVGWLKADTKAIQAIHENVITHNPRVTVSHLDQNTWNLHIKAVSEEDRGGYMCQLNTDPMKSQIGFLDVVIPPDFISEDTSSDVIVPEGSSVRLTCRARGYPEPIVTWRREDGNEIVLKDNVGTKTLAPSFRGEVLKLSKISRNEMGSYLCIASNGVPPSVSKRISLSIHFHPVIQVPNQLVGAPLGTDVQIECHVEASPKSINYWIKDTGEMIVTSGKYHVQESSQSMYETKMSMIVRKFQKDDVGSYRCIAKNSLGEVDSSIRLYEIPGPNRNKNPLNGGGKGGGAGGSLDADANDILKQKQQVKVTYQPEDEELQYGSVEDFEAEGGEGGGLTPLSPHVYYTSGNKPATHKPGNSGGNQHLHQQHHHHHHHNNNNNNQQHSGGPGGGPTGGDAGSLGGEMGGITRKPPPYYGGNTEVRGPIDNNEMSSGSGDSRLCRGHHLPILLLPFARLILVRSWHCRHTFLMGLSQACLPGLLLSLL
# Variants of: B1
# Experiment: SPR
# Details: with DIP-α (Dpr Interacting Protein alpha), 25 °C, 10 mM Tris-HCl, pH 7.2, 150 mM NaCl, 1 mM EDTA, 1 mg mL−1 BSA, 0.01% (v/v) Tween-20, analyte 81 to 0.012 μM, three-fold dilution series, parent: 0
row,ddG [kcal/mol],Variant
1,> 3.5,chain 1 L93G Q142E V144K
